The values below come from US20170066829A1 (published 2017).

The target of this experiment is HER2 molecule (antigen of the affinity ELISA of FIG. 4) (UniProt P04626 23-652, limits assumed). The experiment in a line: ELISA with dilutions of HRP-conjugated Hersintuzumab, sigmoidal OD 450 nm curves. A general note: In an ELISA, binding on a coated surface is turned into a signal by an enzyme label.

B1: Hersintuzumab (antibody, V domains shown)
VH: EVKLVESGGGLVKPGGSLRLSCATSGFSFSSYYMYWVRQAPGKRLEWVAYISSGSEIYYSDSVKGRFTISRDSAKNTLYLQMNSLRAEDTAVYYCARLGDDGMDVWGQGTTVTVSS
VL: DIVMTQSPSSLSASVGDRVTITCRASQNVRTAVAWFQQKPGKAPKALIYLASNRHTGVPDRFTGSGSGTEFTLTISNLQPEDFATYFCLQHNSYPLTFGGGTKVEIK
notes: also called humanized anti-HER2 antibody; humanized monoclonal anti-HER2 antibody
The molecule B1 yielded a Ka of 6e+08 M⁻¹.
